B1: OR4K15 (parent)
chain: GUUAACGGUCAUAGGCCAUGGAAACUAGGAGCACCAUUUCGCUGCCAGUGAAGAAAUGAACAAAGAAAAUCUGGGCCAGGCAGGCAUCAAAAGAAAUAGUCUUGCGCUCAACCAGAAAGUCUGUAAUCAUUUUAAGGGUA

The variants in this data set derive from B1. Briefly: self-cleavage, relative activity (ratio to wild type); higher = more cleavage; in vitro, sequencing; the parent is a self-cleaving ribozyme.
As for U100C U132G, the self-cleavage stood at 2.82.

Regarding A33G C113U, the self-cleavage turned out to be 0.02.

Regarding A13U A91U, the self-cleavage was found to be 1.34.

Turning to A24G A59U, the self-cleavage was determined as 0.51.

Take U26C A27G: the self-cleavage came to 0.75.

For A22U A51G, the self-cleavage was 1.63.

Consider A56G U102A, for which the self-cleavage was found to be 0.97.

With U37C A52G, the self-cleavage is 1.4.

Regarding A82G A92C, the self-cleavage worked out at 0.78.

Take G50A A117G: the self-cleavage was 1.92.

Turning to A78U U97C, the self-cleavage worked out at 0.36.

On to A96U A117G, for which the self-cleavage came to 1.75.

With U43C U70G, the self-cleavage was 1.28.

Regarding U127A A140U, the self-cleavage is 1.25.

Regarding U9A A69G, the self-cleavage worked out at 1.27.

For C61U A89G, the self-cleavage turned out to be 1.62.

A54U U139C: the self-cleavage was determined as 1.45.

For A54U U139A, the self-cleavage is 1.63.

With A27U U43G, the self-cleavage is 1.64.

Consider U124C U130G, for which the self-cleavage came to 0.87.

In the case of C17U A89G, the self-cleavage was 1.23.

As for A23U A67G, the self-cleavage was 1.73.

Consider A24G A96G, for which the self-cleavage worked out at 1.2.

Consider A66G A82U, for which the self-cleavage is 0.29.

Regarding A30G U139C, the self-cleavage was found to be 1.03.

Turning to U108A A110G, the self-cleavage turned out to be 0.01.

For C77U U120C, the self-cleavage was 1.21.

With U2A A89G, the self-cleavage is 1.07.

Consider A47G A111G, for which the self-cleavage is 0.02.

In the case of U57A A90G, the self-cleavage turned out to be 0.76.

Regarding A110U A114G, the self-cleavage came to 0.49.

As for A24G A129G, the self-cleavage was 1.15.

As for U130C A140G, the self-cleavage stood at 1.

On to A66G A134C, for which the self-cleavage was 1.71.

For A36U A59U, the self-cleavage came out at 1.33.

In the case of A5G A30U, the self-cleavage worked out at 1.14.

In the case of A68C A90G, the self-cleavage turned out to be 1.24.

Take G28A U131C: the self-cleavage was 0.99.

On to A56G A92G, for which the self-cleavage is 1.68.

Consider U3C A126U, for which the self-cleavage stood at 0.79.

With U2A U49A, the self-cleavage was determined as 1.64.

Consider U70C U124C, for which the self-cleavage is 0.27.

Consider A91U U120C, for which the self-cleavage was 1.64.

Regarding U2A A47G, the self-cleavage turned out to be 1.42.

With G73U A95G, the self-cleavage worked out at 0.17.

With A78U U108G, the self-cleavage amounted to 0.01.

On to A23G G65A, for which the self-cleavage is 0.71.

Consider A24C A95U, for which the self-cleavage came out at 2.22.

Regarding A55U A62G, the self-cleavage was determined as 0.23.

As to U12A A54U, the self-cleavage was determined as 1.28.

Take A92G A110C: the self-cleavage was 0.26.

For A24G A56C, the self-cleavage was 1.02.

Take A30C U120C: the self-cleavage came out at 0.69.

For U38C A47U, the self-cleavage is 0.77.

In the case of A52U G74A, the self-cleavage is 0.16.

Take C32U U124A: the self-cleavage is 0.41.

Turning to A24C A30U, the self-cleavage was 0.99.

With A62G U70C, the self-cleavage came to 0.47.

A78G A140U: the self-cleavage worked out at 0.36.

Take A4G U19C: the self-cleavage came to 1.78.

As for A63C U139C, the self-cleavage worked out at 1.97.

Regarding A66G U133C, the self-cleavage was 1.82.

Consider A54G U124C, for which the self-cleavage is 0.75.

For A94G U130G, the self-cleavage came to 1.09.

Take A82U: the self-cleavage worked out at 0.14.

For the variant U120A U132C, the self-cleavage turned out to be 1.37.

Take A55C: the self-cleavage worked out at 0.94.

Take A55U: the self-cleavage was determined as 1.13.

For the variant G21A U38A, the self-cleavage was 1.28.

With C40U A67G, the self-cleavage amounted to 0.82.

Turning to U3C A22U, the self-cleavage was 1.12.

Turning to A27G A54U, the self-cleavage turned out to be 1.03.

With A86G U124A, the self-cleavage is 0.4.

Consider A66C U100C, for which the self-cleavage amounted to 1.6.

In the case of A114G G123A, the self-cleavage turned out to be 0.12.

With G104A, the self-cleavage stood at 0.04.

As for A66U A78G, the self-cleavage came to 0.3.

Turning to A55U A111G, the self-cleavage is 0.02.

Take A22G C32U: the self-cleavage was 0.91.

G44U A59G: the self-cleavage was found to be 1.67.

In the case of A22G A111G, the self-cleavage is 0.05.

With U43A G74C, the self-cleavage stood at 0.23.

On to U26C A86C, for which the self-cleavage turned out to be 0.7.

Consider U87C A94U, for which the self-cleavage was determined as 1.37.

Take A18G A110G: the self-cleavage amounted to 0.21.

Regarding A60G U120A, the self-cleavage came to 1.93.

For A114G A134G, the self-cleavage stood at 0.63.

For the variant A54G A82U, the self-cleavage was 0.26.

Consider U87G A90G, for which the self-cleavage was 0.82.

A56C A118G: the self-cleavage is 0.63.

Take U39C A47G: the self-cleavage turned out to be 1.25.

Take U133C: the self-cleavage worked out at 1.29.

For the variant A18G U130C, the self-cleavage was determined as 1.01.

In the case of A30U G138A, the self-cleavage was found to be 2.22.

With A69G A126G, the self-cleavage was 0.55.

Take A78U U139A: the self-cleavage is 0.5.

For the variant A5U A52G, the self-cleavage was 1.18.

For U57C A59G, the self-cleavage was 0.57.

In the case of A52C A117G, the self-cleavage amounted to 1.22.

As to A24C A56G, the self-cleavage is 2.01.

For the variant A82G C113U, the self-cleavage worked out at 0.05.

For U49C A86U, the self-cleavage was determined as 1.68.

Turning to A95G A140U, the self-cleavage stood at 2.09.

Regarding A51U C101U, the self-cleavage was determined as 0.72.

Regarding G20U U39A, the self-cleavage was 1.57.

As to U9C A60U, the self-cleavage amounted to 1.9.

As to A13U A129G, the self-cleavage was determined as 1.57.

For the variant G8A U57A, the self-cleavage worked out at 2.18.

Turning to A64U U120G, the self-cleavage amounted to 1.63.

Regarding U9C A18C, the self-cleavage came to 0.9.

On to A23G A116G, for which the self-cleavage is 0.47.

In the case of G83A U102C, the self-cleavage was found to be 0.44.

For G48A U120C, the self-cleavage amounted to 1.38.

In the case of A47G, the self-cleavage stood at 0.96.

For the variant A33G A67U, the self-cleavage was 1.36.

For the variant A23U A47U, the self-cleavage was found to be 1.04.

As for A47U A60G, the self-cleavage was determined as 0.42.

For A56G A95G, the self-cleavage was found to be 1.69.

For A23U G137A, the self-cleavage turned out to be 1.46.

In the case of A95G A98G, the self-cleavage amounted to 1.49.

A89G A90G: the self-cleavage was 0.71.

As for A22U U132A, the self-cleavage stood at 1.7.

In the case of G83A A89U, the self-cleavage was found to be 1.82.

Take G41A A51C: the self-cleavage came to 1.57.

On to U87C, for which the self-cleavage was found to be 0.94.

Regarding A55U U120C, the self-cleavage came to 0.86.

Turning to A91G A116G, the self-cleavage was 0.55.

As for A13G A63U, the self-cleavage was 0.77.

As to G14A A47G, the self-cleavage came to 0.81.

For the variant G31A A59U, the self-cleavage worked out at 0.76.

With A82G G106A, the self-cleavage is 0.01.

U72A A135G: the self-cleavage was found to be 0.21.

With U122C A125G, the self-cleavage is 0.38.

Consider U3A A55C, for which the self-cleavage came to 1.31.

Regarding A116U A134U, the self-cleavage is 0.33.

For the variant A64G C105U, the self-cleavage amounted to 0.12.

Consider C109A A140G, for which the self-cleavage amounted to 0.47.

Consider A22G U127G, for which the self-cleavage worked out at 1.34.

For U3A U103C, the self-cleavage is 0.76.

Consider U43G A66G, for which the self-cleavage turned out to be 1.69.

On to C6U G20U, for which the self-cleavage stood at 1.06.

For U72A, the self-cleavage stood at 0.18.

A78U A98G: the self-cleavage worked out at 0.06.

As to A23G C61G, the self-cleavage was determined as 1.12.

Regarding U100C U130A, the self-cleavage amounted to 2.16.

Regarding U49C A55U, the self-cleavage was 1.67.

U127A: the self-cleavage amounted to 1.6.

A18U U38A: the self-cleavage is 1.02.

As for A117U A125G, the self-cleavage was 0.99.

Consider G7U U39C, for which the self-cleavage turned out to be 0.54.

As for U108G U133C, the self-cleavage was 0.02.

With A24C G123A, the self-cleavage was 1.91.

In the case of U2C U87C, the self-cleavage was determined as 0.43.

With G31U A54G, the self-cleavage stood at 1.34.

Take A95G G137U: the self-cleavage came out at 2.07.

As for A66G C81G, the self-cleavage was 0.18.

With U72C U108A, the self-cleavage is 0.07.

Regarding A27G A92U, the self-cleavage is 1.07.

On to A18U U49C, for which the self-cleavage came to 1.47.

As to A64U U100C, the self-cleavage was found to be 2.38.

For the variant A55G U97A, the self-cleavage came to 1.51.

Regarding A5U U37C, the self-cleavage was found to be 0.72.

Consider A51G A111G, for which the self-cleavage was 0.03.

As for A78U U130C, the self-cleavage came out at 0.2.

Take U72C C128A: the self-cleavage amounted to 0.13.

On to A36U U139A, for which the self-cleavage stood at 2.31.

As for U2C U39A, the self-cleavage was determined as 1.17.

For the origin of these results see the RNAGym collection of RNA variant scans (doi:10.7554/elife.90254).
